molecular target: plasma purified human AT-III (antithrombin III) in complex with unfractionated heparin (human) (UniProt P01008); test: residual FIXa activity on Mesyl-D-CHG-Gly-Arg-AMC after timed incubation with AT-III/UFH (0-500 nM AT-III, 1 uM UFH); kapp from K0.5

Substance | kapp (apparent second-order rate constant for inhibition) [M⁻¹ s⁻¹]
FIXa-D104N/K106S/R318Y/R338E/T343R/R403E/E410N (from UniProt P00740 47-191; P00740 227-461) (enzyme) | 9100
FIXa-K247N/N249S/R338E/R403E/E410N (from UniProt P00740 47-191; P00740 227-461) (enzyme) | 21000
FIXa-Y155F/R318Y/R338E/T343R/R403E/E410N (from UniProt P00740 47-191; P00740 227-461) (enzyme) | 8600
FIXa-R318Y/R338E/T343R/R403E/E410N (from UniProt P00740 47-191; P00740 227-461) (enzyme) | 32000
FIXa-D104N/K106S/K247N/N249S/N260S (from UniProt P00740 47-191; P00740 227-461) (enzyme) | 1.7e+06
FIXa-R318Y/R338E/N346D/R403E/E410N (from UniProt P00740 47-191; P00740 227-461) (enzyme) | 1100
FIXa-Y155F/K247N/N249S/R318Y/R403E/E410N (from UniProt P00740 47-191; P00740 227-461) (enzyme) | 7300
FIXa-D104N/K106S/N260S/R318Y/R338E/R403E/E410N (from UniProt P00740 47-191; P00740 227-461) (enzyme) | 2100

molecular target: antithrombin III (AT-III), plasma purified human, in complex with unfractionated heparin (UFH) (human) (UniProt P01008); test: inhibition of FIXa by AT-III/UFH, pseudo-first-order, residual activity on Mesyl-D-CHG-Gly-Arg-AMC

Substance | kapp (second-order rate constant for inhibition) [M⁻¹ s⁻¹]
FIXa-Y155F/N260S/R318Y/R338E/T343R/R403E/E410N (from UniProt P00740 47-191; P00740 227-461) (enzyme) | 2600
FIXa-K247N/N249S/R318Y/R338E/T343R/R403E (from UniProt P00740 47-191; P00740 227-461) (enzyme) | 1700
FIXa-Y155F/K228N/I251S/R318Y/R338E/R403E/E410N (from UniProt P00740 47-191; P00740 227-461) (enzyme) | 1300
FIXa-Y155F/R338E/T343R/R403E/E410S (from UniProt P00740 47-191; P00740 227-461) (enzyme) | 220000
FIXa-Y155F/K247N/N249S/R338E/R403E (from UniProt P00740 47-191; P00740 227-461) (enzyme) | 13000
FIXa-K228N/I251S/R318Y/R338E/R403E/E410N (from UniProt P00740 47-191; P00740 227-461) (enzyme) | 900
FIXa-Y155F/K247N/N249S/R338E/T343R/R403E/E410N (from UniProt P00740 47-191; P00740 227-461) (enzyme) | 89000
FIXa-K247N/N249S/R338E/T343R/R403E/E410N (from UniProt P00740 47-191; P00740 227-461) (enzyme) | 86000
FIXa-N260S/R318Y/R338E/T343R/R403E/E410N (from UniProt P00740 47-191; P00740 227-461) (enzyme) | 2600
FIXa-Y155F/K247N/N249S/R318Y/R403E (from UniProt P00740 47-191; P00740 227-461) (enzyme) | 2100
FIXa-Y155F/K247N/N249S/R318Y/R338E/T343R/R403E (from UniProt P00740 47-191; P00740 227-461) (enzyme) | 2300
FIXa-K247N/N249S/R318Y/R338E/T343R/R403E/E410N (from UniProt P00740 47-191; P00740 227-461) (enzyme) | 9600
FIXa-R318Y/R338E/T343R/R403E/E410S (from UniProt P00740 47-191; P00740 227-461) (enzyme) | 9900
FIXa-R318Y/R338E/T343R/R403E (from UniProt P00740 47-191; P00740 227-461) (enzyme) | 5800
FIXa-Y155F/I251S/R338E/T343R/R403E (from UniProt P00740 47-191; P00740 227-461) (enzyme) | 160000
FIXa-Y155F/K247N/N249S/R318Y/E410N (from UniProt P00740 47-191; P00740 227-461) (enzyme) | 130000

Substance | kapp (second-order rate constant for inhibition) [M⁻¹ s⁻¹]
FIXa-Y155F/R338E/T343R/R403E (from UniProt P00740 47-191; P00740 227-461) (enzyme) | 93000
FIXa-Y155F/K247N/N249S/R318Y/R338E/T343R/E410N (from UniProt P00740 47-191; P00740 227-461) (enzyme) | 220000
FIXa-Y155F/K247N/N249S/R338E/T343R (from UniProt P00740 47-191; P00740 227-461) (enzyme) | 1.2e+07
FIXa-Y155F/K247N/N249S/T343R/R403E (from UniProt P00740 47-191; P00740 227-461) (enzyme) | 140000
FIXa-R338E/T343R/R403E (from UniProt P00740 47-191; P00740 227-461) (enzyme) | 190000
FIXa-Y155F/K228N/K247N/N249S/R318Y/R338E/T343R/R403E/E410N (from UniProt P00740 47-191; P00740 227-461) (enzyme) | 2200
FIXa-Y155F/K247N/N249S/R318Y/R338E/T343R/R403E/E410N (from UniProt P00740 47-191; P00740 227-461) (enzyme) | 8700
FIXa-Y155F/R338E/T343R/R403E/E410N (from UniProt P00740 47-191; P00740 227-461) (enzyme) | 280000
FIXa-Y155F/R318Y/R338E/T343R/E410N (from UniProt P00740 47-191; P00740 227-461) (enzyme) | 780000
FIXa-K228N/K247N/N249S/R318Y/R338E/T343R/R403E/E410N (from UniProt P00740 47-191; P00740 227-461) (enzyme) | 5300
FIXa-R318Y/T343R/R403E/E410N (from UniProt P00740 47-191; P00740 227-461) (enzyme) | 93000
FIXa-Y155F/R318Y/R338E/T343R/R403E (from UniProt P00740 47-191; P00740 227-461) (enzyme) | 2800
FIXa-Y155F/R318Y/T343R/R403E/E410N (from UniProt P00740 47-191; P00740 227-461) (enzyme) | 55000
FIXa-Y155F/N260S/R338E/T343R/R403E (from UniProt P00740 47-191; P00740 227-461) (enzyme) | 40000
FIXa-Y155F/K247N/N249S/R318Y/R338E (from UniProt P00740 47-191; P00740 227-461) (enzyme) | 27000

molecular target: antithrombin III (plasma purified human AT-III), in complex with unfractionated heparin (human) (UniProt P01008); test: AT-III/UFH inhibition of FIXa; residual activity on Pefafluor FIXa substrate, varied incubation time

Substance | kapp (apparent second-order rate constant for inhibition) [M⁻¹ s⁻¹]
FIXa D104N/K106S/R318Y/R338E/R403E/E410N (from UniProt P00740 47-191; P00740 227-461) (enzyme) | 3900
FIXa D104N/K106S/Y155F/K247N/N249S/R318Y/R338E/R403E/E410N (from UniProt P00740 47-191; P00740 227-461) (enzyme) | 1000
FIXa Y155F/K247N/N249S/R318Y/R338E/E410N (from UniProt P00740 47-191; P00740 227-461) (enzyme) | 180000
FIXa T343Q (from UniProt P00740 47-191; P00740 227-461) (enzyme) | 2.1e+06
FIXa K247N/N249S/R318Y/R338E/E410N (from UniProt P00740 47-191; P00740 227-461) (enzyme) | 860000
FIXa I251S/R318Y/R338E/R403E/E410N (from UniProt P00740 47-191; P00740 227-461) (enzyme) | 3000
FIXa Y155F/R318Y/R403E/E410N (from UniProt P00740 47-191; P00740 227-461) (enzyme) | 8100
FIXa Y155F/K247N/N249S/R318Y/R338E/R403E/E410N (from UniProt P00740 47-191; P00740 227-461) (enzyme) | 1600
FIXa R318Y/R338E (from UniProt P00740 47-191; P00740 227-461) (enzyme) | 620000
FIXa Y155F/K228N/R318Y/R338E/R403E/E410N (from UniProt P00740 47-191; P00740 227-461) (enzyme) | 4600
FIXa D203N/F205T/R318Y/E410N (from UniProt P00740 47-191; P00740 227-461) (enzyme) | 53000
FIXa Y155F/R318Y/R338E/E410N (from UniProt P00740 47-191; P00740 227-461) (enzyme) | 450000
FIXa A103N/N105S/R318Y/R338E/R403E/E410N (from UniProt P00740 47-191; P00740 227-461) (enzyme) | 2600
FIXa R318Y/R403E/E410N (from UniProt P00740 47-191; P00740 227-461) (enzyme) | 28000
FIXa D85N/K228N/R318Y/R338E/R403E/E410N (from UniProt P00740 47-191; P00740 227-461) (enzyme) | 3000
